# Source: US20020012942A1, “POLYPEPTIDES WITH A4 INTEGRIN SUBUNIT RELATED ACTIVITY” (Regents of the University of Minnesota, priority 1998, published 2002)
# Like-named read-outs stand apart in the source and are kept apart here. Where no end group is shown, it is not given here.
# B1: CS1/OVA: CS1 polypeptide chemically conjugated to ovalbumin using EDC (conjugate)
# peptide: DELPQLVTLPHPNLHGPEILDVPST
# chain: GSIGAASMEFCFDVFKELKVHHANENIFYCPIAIMSALAMVYLGAKDSTRTQINKVVRFDKLPGFGDSIEAQCGTSVNVHSSLRDILNQITKPNDVYSFSLASRLYAEERYPILPEYLQCVKELYRGGLEPINFQTAADQARELINSWVESQTNGIIRNVLQPSSVDSQTAMVLVNAIVFKGLWEKAFKDEDTQAMPFRVTEQESKPVQMMYQIGLFRVASMASEKMKILELPFASGTMSMLVLLPDEVSGLEQLESIINFEKLTEWTSSNVMEERKIKVYLPRMKMEEKYNLTSVLMAMGITDVFSSSANLSGISSAESLKISQAVHAAHAEINEAGREVVGSAEAGVDAASVSEEFRADHPFLFCIKHIATNAVLFFGRCVSP
# B2: SG1 polypeptide (peptide)
# peptide: LQQKKEKDIMKKTI
# modifications: Immobilized on CH-Sepharose (CH-affinity beads) in the affinity chromatography; the coupling to the support is not carried by the letters.
# notes: Synthetic peptide; used as soluble peptide in the adhesion assays; also called L-SG1; polypeptide SG1
# How the values were obtained:
# [1] = system: A375SM human melanoma cells; experiment: Trypan blue exclusion assay; assay type: cell-based
# [2] = system: A375SM human melanoma cells; experiment: Cell adhesion assay: A375SM melanoma cell adhesion to substrata coated with CS1/OVA; assay type: cell-based; details: A375SM cells on coated substrata
# Experimental: Cell adhesion assays were performed as previously described in Iida et al., J. Cell Biol., 118, 431-444 (1992) with minor modifications. Ligands were diluted in PBS, and 50 μl aliquots were dispersed in triplicate into Immulon-1 polystyrene microtiter wells. The wells were incubated at 37° C. overnight, and nonspecific binding sites on plastic were then blocked by treating the wells with 200 ul of PBS/BSA.
# Subconfluent A375SM human melanoma cells which had been radiolabeled overnight with ^3H-thymidine (3HTdR, specific activity 6.7 Ci/mmol; NEN Research Products, Boston, Mass.), were harvested by rinsing with 1 mM EDTA, washed two times with EMEM/BSA (EMEM containing 2 mg/ml BSA and 0.15 mM Hepes, pH 7.2) and adjusted to a concentration of […] in the same medium. Aliquots of 100 ul of the cell suspension were dispensed into the wells and the cells were incubated at 37° C. for 30 min. The assays were terminated by aspirating loosely bound and unbound cells from the wells, washing the wells three times, and solubilizing the bound cells in 0.5 N NaOH containing 1% SDS. Bound radioactivity, determined in a Beckman Model 3801 Liquid Scintillation Counter, was used to calculate the percentage of cells which remained adherent to each substratum. Unless otherwise indicated, the data represent the mean of triplicate determinations. […]
# [3] = target: MPG/NG2 chondroitin sulfate proteoglycan (human) (UniProt Q6UVK1); experiment: SG1 peptide affinity column with purified MPG/NG2, linear NaCl gradient 15 mM to 1 M
# MPG/NG2 chondroitin sulfate proteoglycan (human), sequence (Q6UVK1 30-2322): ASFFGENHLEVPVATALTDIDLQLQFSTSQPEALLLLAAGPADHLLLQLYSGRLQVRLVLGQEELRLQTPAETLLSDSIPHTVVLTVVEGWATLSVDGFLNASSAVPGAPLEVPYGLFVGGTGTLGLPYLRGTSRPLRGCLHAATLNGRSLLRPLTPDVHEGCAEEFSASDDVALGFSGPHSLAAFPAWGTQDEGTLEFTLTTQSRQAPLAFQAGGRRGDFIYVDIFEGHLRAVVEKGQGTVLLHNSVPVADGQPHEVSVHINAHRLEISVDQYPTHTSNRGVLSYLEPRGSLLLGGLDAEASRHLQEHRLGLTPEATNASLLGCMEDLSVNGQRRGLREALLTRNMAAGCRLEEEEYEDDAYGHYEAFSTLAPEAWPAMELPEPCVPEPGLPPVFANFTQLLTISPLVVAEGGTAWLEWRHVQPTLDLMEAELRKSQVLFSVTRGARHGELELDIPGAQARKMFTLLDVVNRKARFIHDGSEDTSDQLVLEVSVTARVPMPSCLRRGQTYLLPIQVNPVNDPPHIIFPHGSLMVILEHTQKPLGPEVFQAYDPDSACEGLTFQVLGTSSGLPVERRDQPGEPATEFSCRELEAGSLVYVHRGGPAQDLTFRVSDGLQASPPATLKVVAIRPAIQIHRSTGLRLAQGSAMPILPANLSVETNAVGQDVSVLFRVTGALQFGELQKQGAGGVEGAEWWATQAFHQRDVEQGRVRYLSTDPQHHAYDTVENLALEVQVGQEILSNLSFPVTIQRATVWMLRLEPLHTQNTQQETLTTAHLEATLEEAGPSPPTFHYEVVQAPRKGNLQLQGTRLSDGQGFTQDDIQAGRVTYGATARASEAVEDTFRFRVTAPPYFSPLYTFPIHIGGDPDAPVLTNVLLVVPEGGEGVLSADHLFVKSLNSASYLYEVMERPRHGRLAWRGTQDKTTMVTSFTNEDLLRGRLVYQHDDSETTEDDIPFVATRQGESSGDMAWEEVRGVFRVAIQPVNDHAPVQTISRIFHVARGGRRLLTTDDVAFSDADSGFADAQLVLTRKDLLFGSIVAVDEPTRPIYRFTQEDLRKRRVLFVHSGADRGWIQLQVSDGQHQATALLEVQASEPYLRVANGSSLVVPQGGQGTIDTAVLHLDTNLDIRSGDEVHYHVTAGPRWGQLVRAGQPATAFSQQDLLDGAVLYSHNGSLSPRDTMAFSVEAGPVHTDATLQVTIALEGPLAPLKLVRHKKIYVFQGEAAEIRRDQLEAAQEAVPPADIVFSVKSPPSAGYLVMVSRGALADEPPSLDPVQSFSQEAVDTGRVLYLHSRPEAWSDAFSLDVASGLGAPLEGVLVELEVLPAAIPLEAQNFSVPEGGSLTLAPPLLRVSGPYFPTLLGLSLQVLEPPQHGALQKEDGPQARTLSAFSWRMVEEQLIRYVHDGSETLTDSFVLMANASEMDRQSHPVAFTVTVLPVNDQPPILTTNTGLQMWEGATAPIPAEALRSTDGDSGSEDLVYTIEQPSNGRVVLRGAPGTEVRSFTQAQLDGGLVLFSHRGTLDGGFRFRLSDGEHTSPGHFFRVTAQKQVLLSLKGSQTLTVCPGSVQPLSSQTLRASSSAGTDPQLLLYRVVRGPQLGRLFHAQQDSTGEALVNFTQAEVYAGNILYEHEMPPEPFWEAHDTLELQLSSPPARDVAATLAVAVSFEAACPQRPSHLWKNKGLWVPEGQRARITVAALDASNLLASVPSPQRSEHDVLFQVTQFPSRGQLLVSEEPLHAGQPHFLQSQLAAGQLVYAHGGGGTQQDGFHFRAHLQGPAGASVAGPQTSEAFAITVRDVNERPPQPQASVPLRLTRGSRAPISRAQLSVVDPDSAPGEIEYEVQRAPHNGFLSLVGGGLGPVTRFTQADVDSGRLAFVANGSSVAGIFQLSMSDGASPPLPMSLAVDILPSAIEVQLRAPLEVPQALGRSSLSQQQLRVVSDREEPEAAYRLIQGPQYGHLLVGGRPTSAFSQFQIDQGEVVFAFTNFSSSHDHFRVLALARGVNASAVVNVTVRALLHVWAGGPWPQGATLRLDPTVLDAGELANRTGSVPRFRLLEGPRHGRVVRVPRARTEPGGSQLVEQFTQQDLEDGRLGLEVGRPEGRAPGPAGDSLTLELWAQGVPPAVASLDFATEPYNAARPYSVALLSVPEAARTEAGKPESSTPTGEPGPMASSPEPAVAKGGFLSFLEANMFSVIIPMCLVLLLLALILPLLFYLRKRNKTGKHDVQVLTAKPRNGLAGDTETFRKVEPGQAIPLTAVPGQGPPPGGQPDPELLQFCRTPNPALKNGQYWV
# CD44 proteoglycan = CD44 proteoglycan (human, UniProt P16070-12 21-361, limits assumed); experiment: SG1 peptide affinity column with 125I-labeled melanoma cell lysate; pooled eluate immunoprecipitated with anti-CD44
# CD44 proteoglycan, sequence (P16070 other isoform, or with tags, fused parts or gaps limits assumed): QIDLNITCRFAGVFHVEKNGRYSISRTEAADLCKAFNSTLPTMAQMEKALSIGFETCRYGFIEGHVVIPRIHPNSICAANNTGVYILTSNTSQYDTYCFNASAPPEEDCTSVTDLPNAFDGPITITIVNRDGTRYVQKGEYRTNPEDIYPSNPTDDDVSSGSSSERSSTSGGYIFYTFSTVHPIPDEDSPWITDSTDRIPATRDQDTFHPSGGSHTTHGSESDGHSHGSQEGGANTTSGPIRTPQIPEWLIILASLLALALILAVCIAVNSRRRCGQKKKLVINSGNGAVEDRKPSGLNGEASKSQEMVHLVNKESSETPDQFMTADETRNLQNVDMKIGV
# Experimental: Peptide-affinity chromatography was performed according to the methods described in Iida et al., J. Cell Biol., 118, 431-444 (1992). SG1 was immobilized on CH-Spharose and blocked using standard methods as described in the manufacturer's instruction. (available from Pharmacia). Human melanoma cells were surface radiolabeled with ¹²⁵I using lactoperoxidase and extracted as described in Iida et al., Cancer Res., 55, 2177-2185 (1995). Cells were extracted with 50 mM Tris-HCl (pH 7.3) containing 50 mM β-octylglucoside, 15 mM NaCl, 1 mM Ca²+, 1 mM Mg²+, 1 mM Mn²+, 1 mM PMSF, and 1 mM NEM (extraction buffer) and then centrifuged at 36500 rpm for 1 h at 4° C. The cell lysates were first precleared by incubating with a mock-column, where no peptide was immobilized, and then applied on the SG1 column. The column was extensively washed with the extraction buffer and then bound proteins were subsequently eluted by a linear gradient of sodium chloride (15 mM to 1 M). Each fraction was counted by r-counter and positive fractions were pooled and immunoprecipitated as described below.
# In order to study the function of SG1 site in α4β1 integrin, affinity chromatography was performed using immobilized SG1 polypeptide. […] Open circles represent the radioactivity in each fraction and the solid line represents the concentration of NaCl in each fraction. […]
molecule,measurement,setting,value
"LQQKKEKDIMKKTI [SG1, LQQKKEKDIMKKTI]",Toxic activity on the cells (trypan blue exclusion),[1],not be due to their toxic activity
"DELPQLVTLPHPNLHGPEILDVPST [CS1, reference compound]",Toxic activity on the cells (trypan blue exclusion),[1]; not shown,not be due to their toxic activity
B1,Coating concentration that promoted half maximal cell adhesion,[2],5 µg/mL
B2,NaCl concentration at elution,[3],0.13 to 0.15 M
same,binding result,CD44 proteoglycan,no binding
